Results: PMC7568541

Legend:
[1] = target: recombinant 601-positioned nucleosome core particle (X. laevis histones, 147-bp 601 DNA) (x. laevis); assay: native gel or EMSA; TAMRA-labeled SIRT6 with NCP; TAMRA and SYBR Safe fluorescence scanned in the same gel, TAMRA signal normalized to DNA content; gel blotted for histone H3
[2] = target: recombinant 601-positioned nucleosome core particle (X. laevis histones, 147-bp 601 DNA) (x. laevis); assay: native gel or EMSA; 50 nM recombinant nucleosomes with varying SIRT6 protein; 10 mM Tris, 50 mM NaCl, 0.5 mM TCEP, 6% glycerol, pH 7.4, on ice >15 min; SYBR Safe; apparent KD, shifted complexes together as bound fraction, ligand-depleted (quadratic) fit
[3] = target: NCP with the high affinity site saturated with full-length SIRT6 (1:1 SIRT6:NCP complex) (x. laevis | not stated) (UniProt Q8N6T7); assay: native gel or EMSA; high affinity site on NCPs saturated with 10 nM full-length SIRT6, then increasing SIRT6^(1–292); fraction bound from the loss of free nucleosomes
[4] = test system: SIRT6(TQ3); assay: FRET; conditions: EMSA: 10 mM Tris, 50 mM NaCl (100 mM for DNA), 0.5 mM TCEP, 6% glycerol, pH 7.4, on ice, 50 nM NCP, FRET: 50 mM Tris, pH 7.5, 1 nM …
[5] = target: recombinant 601-positioned nucleosome core particle (X. laevis histones, 147-bp 601 DNA) (x. laevis); assay: FRET or BRET; 1 nM Cy3-labeled nucleosomes titrated with SIRT6^(TQ3) in solution; 50 mM Tris, 50 mM NaCl, 0.5 mM TCEP, pH 7.5; KD(High) fitted from 0-5 nM (ligand-depleted), KD(Low) from 5-500 nM (specific binding)
[6] = target: recombinant 601-positioned nucleosome core particle (X. laevis histones, 147-bp 601 DNA) (x. laevis); assay: native gel or EMSA
[7] = target: recombinant 601-positioned nucleosome core particle (X. laevis histones, 147-bp 601 DNA) (x. laevis); assay: native gel or EMSA; competition: SIRT6:NCP complexes pre-formed with 100 nM SIRT6, then competed with LANA peptide (300 nM to 100 µM); IC50 from percent inhibition
[8] = target: nucleosome core particle with four alanine mutations at the H2A acidic patch (x. laevis); assay: native gel or EMSA; 50 nM recombinant nucleosomes with varying SIRT6 protein; 10 mM Tris, 50 mM NaCl, 0.5 mM TCEP, 6% glycerol, pH 7.4, on ice >15 min; SYBR Safe; apparent KD, shifted complexes together as bound fraction, ligand-depleted (quadratic) fit
[9] = test system: SIRT6 25N mutant; assay: EMSA; conditions: apparent, n=1, EMSA: 10 mM Tris, 50 mM NaCl (100 mM for DNA), 0.5 mM TCEP, 6% glycerol, pH 7.4, on ice, 50 nM NCP, FRET: 50 mM Tris, pH 7.5, 1 nM …
[10] = test system: SIRT6(270-355) CTD; assay: EMSA; conditions: EMSA: 10 mM Tris, 50 mM NaCl (100 mM for DNA), 0.5 mM TCEP, 6% glycerol, pH 7.4, on ice, 50 nM NCP, FRET: 50 mM Tris, pH 7.5, 1 nM …
[11] = test system: SIRT6(1-292); assay: EMSA; conditions: EMSA: 10 mM Tris, 50 mM NaCl (100 mM for DNA), 0.5 mM TCEP, 6% glycerol, pH 7.4, on ice, 50 nM NCP, FRET: 50 mM Tris, pH 7.5, 1 nM …
[12] = test system: SIRT6(AAA); assay: EMSA; conditions: EMSA: 10 mM Tris, 50 mM NaCl (100 mM for DNA), 0.5 mM TCEP, 6% glycerol, pH 7.4, on ice, 50 nM NCP, FRET: 50 mM Tris, pH 7.5, 1 nM …
[13] = test system: SIRT6 27R mutant; assay: EMSA; conditions: apparent, n=1, EMSA: 10 mM Tris, 50 mM NaCl (100 mM for DNA), 0.5 mM TCEP, 6% glycerol, pH 7.4, on ice, 50 nM NCP, FRET: 50 mM Tris, pH 7.5, 1 nM …
[14] = test system: SIRT6(1-301); assay: EMSA; conditions: 139 nM in text, EMSA: 10 mM Tris, 50 mM NaCl (100 mM for DNA), 0.5 mM TCEP, 6% glycerol, pH 7.4, on ice, 50 nM NCP, FRET: 50 mM Tris, pH 7.5, 1 nM …
[15] = test system: SIRT6; assay: EMSA; conditions: apparent, both complexes as bound, 50 nM NCP, EMSA: 10 mM Tris, 50 mM NaCl (100 mM for DNA), 0.5 mM TCEP, 6% glycerol, pH 7.4, on ice, FRET: 50 mM Tris, pH 7.5, 1 nM …
[16] = test system: LANA peptide (Kaposi's sarcoma-associated herpesvirus); assay: competition EMSA; conditions: EMSA: 10 mM Tris, 50 mM NaCl (100 mM for DNA), 0.5 mM TCEP, 6% glycerol, pH 7.4, on ice, 50 nM NCP, FRET: 50 mM Tris, pH 7.5, 1 nM …
[17] = test system: LANA peptide (Kaposi's sarcoma-associated herpesvirus); assay: competition EMSA; conditions: EMSA: 10 mM Tris, 50 mM NaCl (100 mM for DNA), 0.5 mM TCEP, 6% glycerol, pH 7.4, on ice, 50 nM NCP, FRET: 50 mM Tris, pH 7.5, 1 nM …; remark: listed apart in the source

Latency Associated Nuclear Antigen (LANA) peptide from Kaposi’s sarcoma-associated herpesvirus, sequence (Q9QR71 1-23): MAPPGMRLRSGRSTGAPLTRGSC

How did the stoichiometry N [1] turn out when “SIRT6 labeled with tetramethylrhodamine (TAMRA) at cysteine 320 (from UniProt Q8N6T7 2-355) (enzyme)” was run?
The stoichiometry N was 2.

With “SIRT6 residues 1–301 (C-terminal truncation) (from UniProt Q8N6T7 1-301) (domain or fragment)” as the substance, how does the Kd [2] read?
Its Kd is 140 nM.

And the stoichiometry N [2]?
Its stoichiometry N is 2.

What does the source list for “SIRT6 residues 1–292 (C-terminal truncation) (from UniProt Q8N6T7 1-292) (domain or fragment)”?
KD(Low), low affinity site [3]: 40 nM; Kd [2]: 250 nM; stoichiometry N [2]: 2

With NCP(Cy3) as the substance, how does the Kd ([4]; high-affinity site) read?
Its Kd is 0.46 nM.

And the Kd ([4]; low-affinity site)?
The Kd was 30 nM.

For “SIRT6 labeled with Tide Quencher 3 (TQ3) at cysteine 18 (from UniProt Q8N6T7 2-355) (enzyme)”, which KD(High), high affinity site [5] is on record?
The KD(High), high affinity site was 0.46 nM.

What about the KD(Low), low affinity site [5] of the same substance?
Its KD(Low), low affinity site is 30 nM.

“Latency Associated Nuclear Antigen (LANA) peptide from Kaposi’s sarcoma-associated herpesvirus” was tested. Which IC50 [6] did it give?
Its IC50 is 6100 nM.

What about the IC50 [7] of the same substance?
Its IC50 is 9500 nM.

“SIRT6 (full-length, His-tagged) (from UniProt Q8N6T7 1-355) (enzyme)” was tested. Which Kd [8] did it give?
Its Kd is 140 nM.

What about the Kd [2] of the same substance?
Its Kd is 13 nM.

How did the Kd [2] turn out when “SIRT6 with alanine substitutions at S45, N206 and N208 (from UniProt Q8N6T7 2-355) (enzyme)” was run?
Its Kd is 97 nM.

Which results are given for NCP (601, 147 bp)?
Kd [9]: 14 nM; Kd [10]: 400 nM; Kd ([11]; 254 nM in text): 250 nM; Kd [11]: 40 nM; Kd [12]: 97 nM; Kd [13]: 14 nM; Kd [14]: 140 nM; Kd [15]: 13 nM; IC50 [16]: 9500 nM; IC50 [17]: 6100 nM

How did the Kd ([10]; 100 mM NaCl, 50 nM DNA) turn out when 601 DNA (147 bp) was run?
The Kd was 450 nM.

With “SIRT6 C-terminal domain (residues 270–355) (from UniProt Q8N6T7 270-355) (domain or fragment)” as the substance, how does the Kd [2] read?
Its Kd is 400 nM.
